Results reported in article PMC8835902, “DNA Polymerase-Parental DNA Interaction Is Essential for Helicase-Polymerase Coupling during Bacteriophage T7 DNA Replication” (International Journal of Molecular Sciences, 2022).

Experiments:
[1] = target: T1, WTgp5-trx complex (T7 gp5 DNA polymerase D5A, E7A with thioredoxin) (bacteriophage T7 | , UniProt P00581 1-704; P0AA25 1-109 = thioredoxin, D5A | E7A); assay: native gel or EMSA; supershift: 10 nM fork DNA (2 gaps) pre-incubated with gp5-trx variants (60-100 nM) 15 min at 25 °C, then rising amounts of hexameric EQgp4, 15 min at 25 °C; 20 mM Hepes pH 7.5, 1 mM EDTA, 100 mM KCl, 0.1 mM βME, 5% glycerol, 0.10 mg/mL BSA; 4% polyacrylamide gel; fitted to the Hill equation; settings: both partners purified
T1 construct: gp5 in pET15b, trxA in pRSFDuet; no tag is mentioned and purification was by heparin and ion exchange; also called DNA-WTgp5; source: E. coli BL21 (DE3), co-expressed, purified (Heparin HP, MonoQ)

[2] = target: T2, K3Dgp5-trx complex (T7 gp5 K545D, K549D, K553D with thioredoxin) (bacteriophage T7 | , UniProt P00581 1-704; P0AA25 1-109 = thioredoxin, D5A | E7A | K545D | K549D | K553D); assay: as above; settings: both partners purified
T2 construct: bacteriophage T7 gp5 DNA polymerase (D5A, E7A) with the positively charged cleft mutations K545D, K549D, K553D; Mutagenesis on the plasmid encoding WTgp5 (D5A, E7A); also called DNA-K3Dgp5; source: E. coli BL21 (DE3), co-expressed, purified (Heparin HP, MonoQ)

B1: T7 gp4 helicase-primase, active site mutant E343Q (enzyme, bacteriophage T7, UniProt P03692 1-566, looked up)
chain: MDNSHDSDSVFLYHIPCDNCGSSDGNSLFSDGHTFCYVCEKWTAGNEDTKERASKRKPSGGKPMTYNVWNFGESNGRYSALTARGISKETCQKAGYWIAKVDGVMYQVADYRDQNGNIVSQKVRDKDKNFKTTGSHKSDALFGKHLWNGGKKIVVTEGEIDMLTVMELQDCKYPVVSLGHGASAAKKTCAANYEYFDQFEQIILMFDMDEAGRKAVEEAAQVLPAGKVRVAVLPCKDANECHLNGHDREIMEQVWNAGPWIPDGVVSALSLRERIREHLSSEESVGLLFSGCTGINDKTLGARGGEVIMVTSGSGMGKSTFVRQQALQWGTAMGKKVGLAMLQESVEETAEDLIGLHNRVRLRQSDSLKREIIENGKFDQWFDELFGNDTFHLYDSFAEAETDRLLAKLAYMRSGLGCDVIILDHISIVVSASGESDERKMIDNLMTKLKGFAKSTGVVLVVICHLKNPDKGKAHEEGRPVSITDLRGSGALRQLSDTIIALERNQQGDMPNLVLVRILKCRFTGDTGIAGYMEYNKETGWLEPSSYSGEEESHSESTDWSNDTDF
notes: bacteriophage T7 gp4 helicase-primase, full-length, with E343Q; modified pET28a with histidine tags and a PreScission site; Added as 'hexameric EQgp4' in the EMSA; also called EQgp4; E343Q gp4; source: E. coli C3013I (T7 Express lysY/Iq), purified (Histrap, MonoQ)
Kd with fork DNA (gp4 on fork DNA pre-bound to gp5-trx) [1]: 8 ± 1 nM
Kd with fork DNA (gp4 on fork DNA pre-bound to gp5-trx) [2]: 6 ± 1 nM
